Results published in patent US20040091953.

Test system: T1, peptide corresponding to the first 22 amino acids of histone 4, chemically acetylated in vitro
T1 sequence: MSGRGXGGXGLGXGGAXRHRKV

## hSIRT6
  NAD-dependent deacetylase activity: showed no detectable activity
